Experimental data: patent publication US7666989B2 (priority 2003, dated 2010)
Where “and” joins values, the source holds several entries; their conditions need not be identical. Equal entries are not always repeated. Entries after “also recorded” stand apart in the source; their conditions may differ. Where two headings read alike, the source gives them in different places. Marks after values point to notes of the source that are not given here.

Experiments:
[1] = system: COLO 205 (human colon cancer cell); experiment: MTT cytotoxicity, COLO 205; assay type: cell-based; settings: 4 days
Source text: (§1) Reagents: RPMI1640 is from GIBCO; MTT is from Bebco. Fetal bovine serum is purchased from Hangzhou SiJiQing Bioengineering Material Co. Ltd. (P. R. China).
(§2) Cell lines: COLO 205 (human colon cancer cell), NCI-H460 (human lung cancer cell), RPMI 8226 (human multiple myeloma cell), U251 (human brain glioma cell) are from ATCC, USA. HL-60 (human promyelocytic leukemia cell), MDA-MB-231, MDA-MB-435 (human breast cancer cell), SCLC (human small-cell lung cancer cell), H125 (human lung cancer cell) and PC-3 (human […] cancer cell).
(§3) The well-grown tumor cells were collected to prepare a cell suspension (1×10^4/ml) with RPMI 1640 medium containing 10% fetal bovine serum. The cell suspension was inoculated into a 96-well plate, 100 μL (containing 1000 tumor cells) per well. The plate was cultured in a 5% CO2 incubator at 37° C. for 24 hours, followed by addition of medicament.
(§4) A blank control and a positive control using 5-fluorouracil or adriamycin are employed in the experiment. […]
(§5) The supernatant was discarded. […] After gently shaking, the OD values were measured by a BIORAD 550 enzyme analyzer, with the detection wavelength being 540 nm and the reference wavelength being 450 nm.
(§6) Dose-response curves were generated by plotting with the cell inhibition rates and different concentrations of medicament, and the half inhibitory concentrations (IC50) were calculated.

[2] = system: MDA-MB-435 (human breast cancer cell); experiment: MTT cytotoxicity, MDA-MB-435; assay type: cell-based; settings: 4 days
Source text: as §1, §2, §3, §4, §5, §6

[3] = system: PC-3 (human pancreas cancer cell); experiment: MTT cytotoxicity, PC-3; assay type: cell-based; settings: 4 days
Source text: as §1, §2, §3, §4, §5, §6

[4] = system: H125 (human lung cancer cell); experiment: MTT cytotoxicity, H125; assay type: cell-based; settings: 4 days
Source text: as §1, §2, §3, §4, §5, §6

[5] = system: RPMI 8226 (human multiple myeloma cell); experiment: MTT cytotoxicity, RPMI 8226; assay type: cell-based; settings: 4 days
Source text: as §1, §2, §3, §4, §5, §6

[6] = system: SCLC (human small-cell lung cancer cell); experiment: MTT cytotoxicity, SCLC; assay type: cell-based
Source text: as §1, §2, §3
A blank control and a positive control using 5-fluorouracil or adriamycin are employed in the experiment. The CPT samples have five concentrations, three parallel wells for each concentration. The cells were cultured in an incubator with 5% CO2 at 37° C. for 4 days. Then the culture medium was removed and 100 μL MTT solution (0.4 mg/ml in RPMI 1640) was added to each well. The plate was incubated at 37° C. for four additional hours.
The supernatant was discarded. 150 μl DMSO was added into each well in order to solubilize Fomazan granulates. After gently shaking, the OD values were measured by a BIORAD 550 enzyme analyzer, with the detection wavelength being 540 nm and the reference wavelength being 450 nm.
as §6

human brain glioma U251 = settings: U251 xenograft, ten injections; for Body Weight (g) Start / Tumor volume (mm^3) Start: baseline; for Inhibition rate (%): by tumor weight
Source text: In this example, the animals used were BALB/c-nu nude mice, 6-8 weeks old. For each experiment, all animals were of the same sex.
Tumor cell lines: human brain glioma U251, human lung cancer cell line NCI-H460, human colon cancer cell line COLO205 were inoculated from in vitro culture into nude mice subcutaneously, the tumors were subcultured and kept.
Experimental Procedures: well-grown nude mice carrying well-grown tumors were selected and sacrificed by disjointing neck vertebra. The tumors were removed aseptically and were cut into pieces having a diameter of 2-3 mm by a scalpel. The pieces were inoculated into the axilla of nude mice subcutaneously by a needle. […] The length and width of tumors were measured by a vernier caliper. The animals were then grouped based their tumor sizes. Each group included seven to eight animals.
The length, width of the tumor and the body weight of the mice were measured twice per week. The tumor volume (TV) and relative tumor volume (RTV) were calculated. A graph indicating the changes of tumor size was plotted. At the end of this experiment, the tumors were taken out and weighed after the mice were sacrificed, and the inhibition rates of the medicament on tumor growth were calculated.
The formula for calculating tumor volume (TV) is: length×width^2÷2.
The formula for calculating relative tumor volume (RTV) is: Vt/Vo (wherein Vo is the TV value measured when the administration is started, Vt is the TV value measured after that).
T-test was used to determine the statistical difference of tumor weights, tumor volumes and RTV etc. between different groups of animal. The index used for evaluating the anti-tumor activity is the relative tumor growth rate T/C (%), the formula for which is: […]
(§7) The evaluation standard for efficacy:
(§8) T/C (%)>60 is ineffective;
T/C (%)≦60 and P<0.05 after statistical analysis is effective.
The Carmustine (Renmin Pharmaceuticals, Amino Acid Inc. Tianjin, P. R. China) was used as the positive control, 40 mg/kg, administered by intraperitoneal injection for once. CPT was given to four groups at the doses of 0.6 mg/kg, 1.7 mg/kg, 5.0 mg/kg, 15.0 mg/kg respectively, administered by intraperitoneal injection. The treatment included ten injections.

[7] = system: human lung cancer NCI-H460; experiment: Growth of human lung cancer NCI-H460 xenograft in nude mice; assay type: in vivo, BALB/c-nu nude mice; settings: ten injections; for Body Weight (g) Start / Tumor volume (mm^3) Start: baseline; for Inhibition rate (%): by tumor weight
Protocol: The animals were then grouped based their tumor sizes. Each group included seven to eight animals.
as §7, §8
One additional injection was given at 80 mg/kg two weeks later. […] The treatment contained a total of ten injections.

cancer cells = experiment: Induction of apoptosis of cancer cells compared with wild type TRAIL; assay type: cell-based; settings: CPT versus wild type TRAIL
[8] = CPT 1.7 mg/kg i.p. once per day
[9] = CPT 5.0 mg/kg i.p. once per day

B1: CPT: human recombinant circularly permuted TRAIL (CPT), which consists of 166 amino acid residues; SEQ ID No:2 (protein)
chain: TLSSPNSKNEKALGRKINSWESSRSGHSFLSNLHLRNGELVIHEKGFYYIYSQTYFRFQEEIKENTKNDKQMVQYIYKYTSYPDPILLMKSARNSCWSKDAEYGLYSIYQGGIFELKENDRIFVSVTNEHLIDMDHEASFFGAFLVGGGGGGVAAHITGTRGRSNT
modifications: Synthetically generated peptide
IC50 [1]: 0.006 ± 0 µg/mL
IC50 [2]: 0.008 ± 0.002 µg/mL
IC50 [3]: 0.067 ± 0.002 µg/mL
IC50 [4]: 0.085 ± 0.006 µg/mL
IC50 [5]: 0.824 ± 0.093 µg/mL
IC50 ([6]; 4 days): 10 ± 0 µg/mL
inhibitory effect on the growth of SCLC cell ([6]; in words): some inhibitory effect; also recorded: some inhibition effect
Body Weight (g) End (human brain glioma U251; CPT 0.6 mg/kg i.p.): 21.0 ± 1.4 g
RTV (human brain glioma U251; CPT 0.6 mg/kg i.p.): 2.77 ± 1.97
T/C (%) (human brain glioma U251; CPT 0.6 mg/kg i.p.): 82.9%
Tumor volume (mm^3) End (human brain glioma U251; CPT 0.6 mg/kg i.p.): 961 ± 582 mm^3
Tumor weight (human brain glioma U251; CPT 0.6 mg/kg i.p.): 0.89 ± 0.49 g
Body Weight (g) Start (human brain glioma U251; CPT 0.6 mg/kg i.p.): 21.0 ± 0.8 g
Tumor volume (mm^3) Start (human brain glioma U251; CPT 0.6 mg/kg i.p.): 141 ± 40 mm^3
Inhibition rate (%) (human brain glioma U251; CPT 0.6 mg/kg i.p.): 30.5%
Body Weight (g) End (human brain glioma U251; CPT 1.7 mg/kg i.p.): 21.5 ± 2.0 g
RTV (human brain glioma U251; CPT 1.7 mg/kg i.p.): 2.12 ± 1.29
T/C (%) (human brain glioma U251; CPT 1.7 mg/kg i.p.): 63.5%
Tumor volume (mm^3) End (human brain glioma U251; CPT 1.7 mg/kg i.p.): 588 ± 215** mm^3
Tumor weight (human brain glioma U251; CPT 1.7 mg/kg i.p.): 0.71 ± 0.22 g
Body Weight (g) Start (human brain glioma U251; CPT 1.7 mg/kg i.p.): 21.6 ± 1.2 g
Tumor volume (mm^3) Start (human brain glioma U251; CPT 1.7 mg/kg i.p.): 131 ± 34 mm^3
Inhibition rate (%) (human brain glioma U251; CPT 1.7 mg/kg i.p.): 44.5%
Body Weight (g) End (human brain glioma U251; CPT 5.0 mg/kg i.p.): 21.9 ± 3.2 g
RTV (human brain glioma U251; CPT 5.0 mg/kg i.p.): 1.32 ± 1.24
T/C (%) (human brain glioma U251; CPT 5.0 mg/kg i.p.): 39.5%
Tumor volume (mm^3) End (human brain glioma U251; CPT 5.0 mg/kg i.p.): 510 ± 333** mm^3
Tumor weight (human brain glioma U251; CPT 5.0 mg/kg i.p.): 0.45 ± 0.26 g
Body Weight (g) Start (human brain glioma U251; CPT 5.0 mg/kg i.p.): 22.0 ± 1.1 g
Tumor volume (mm^3) Start (human brain glioma U251; CPT 5.0 mg/kg i.p.): 133 ± 57 mm^3
Inhibition rate (%) (human brain glioma U251; CPT 5.0 mg/kg i.p.): 64.8%
Body Weight (g) End (human brain glioma U251; CPT 15 mg/kg i.p.): 21.1 ± 1.7 g
RTV (human brain glioma U251; CPT 15 mg/kg i.p.): 0.71 ± 0.57
Tumor volume (mm^3) End (human brain glioma U251; CPT 15 mg/kg i.p.): 261 ± 238** mm^3
Tumor weight (human brain glioma U251; CPT 15 mg/kg i.p.): 0.16 ± 0.15 g
Body Weight (g) Start (human brain glioma U251; CPT 15 mg/kg i.p.): 21.6 ± 1.1 g
Tumor volume (mm^3) Start (human brain glioma U251; CPT 15 mg/kg i.p.): 148 ± 58 mm^3
Inhibition rate (%) (human brain glioma U251; CPT 15 mg/kg i.p.): 87.5% and 87.7%
Body Weight (g) End [7, 8]: 19.8 ± 1.6 g
RTV [7, 8]: 2.27 ± 1.13
T/C (%) [7, 8]: 38.0%
Tumor volume (mm^3) End [7, 8]: 706 ± 170* mm^3
Tumor weight [7, 8]: 0.77 ± 0.19 g
Body Weight (g) Start [7, 8]: 20.1 ± 1.9 g
Tumor volume (mm^3) Start [7, 8]: 200 ± 103 mm^3
Inhibition rate (%) [7, 8]: 52.2%
Body Weight (g) End [7, 9]: 18.5 ± 2.5 g
RTV [7, 9]: 1.49 ± 0.76
Tumor volume (mm^3) End [7, 9]: 469 ± 359** mm^3
Tumor weight [7, 9]: 0.41 ± 0.28 g
Body Weight (g) Start [7, 9]: 20.4 ± 1.9 g
Tumor volume (mm^3) Start [7, 9]: 187 ± 51 mm^3
Inhibition rate (%) [7, 9]: 74.5%
Body Weight (g) End ([7]; CPT 15 mg/kg i.p. once per day): 21.1 ± 1.7 g
RTV ([7]; CPT 15 mg/kg i.p. once per day): 0.79 ± 0.25
Tumor volume (mm^3) End ([7]; CPT 15 mg/kg i.p. once per day): 189 ± 102** mm^3
Tumor weight ([7]; CPT 15 mg/kg i.p. once per day): 0.21 ± 0.10 g
Body Weight (g) Start ([7]; CPT 15 mg/kg i.p. once per day): 20.9 ± 1.1 g
Tumor volume (mm^3) Start ([7]; CPT 15 mg/kg i.p. once per day): 192 ± 63 mm^3
Inhibition rate (%) ([7]; CPT 15 mg/kg i.p. once per day): 87.0% and 88.8%
activity to induce apoptosis of cancer cells relative to wild type TRAIL (cancer cells): six to eleven times as strong
